The text below walks through data of publication PMC7272391.

Values joined by “and” are separate entries in the source; they are usually repeats but may differ in a detail not shown here. Equal entries are not always repeated.

In assay [1] the target is human neonatal Fc receptor (human) (UniProt P55899). Nature of the assay: SPR; BIAcore chip with immobilised anti-β2-microglobulin antibody capturing human FcRn; antibody diluted >5000-fold in assay buffer and injected at 0.15625-2.5 μg/mL; bivalent analyte model. A general note: In SPR one partner is held on a chip, and binding of the other changes the refractive index at the surface.
Chain of UniProt P55899 (P55899 24-365, chain 1 of 2): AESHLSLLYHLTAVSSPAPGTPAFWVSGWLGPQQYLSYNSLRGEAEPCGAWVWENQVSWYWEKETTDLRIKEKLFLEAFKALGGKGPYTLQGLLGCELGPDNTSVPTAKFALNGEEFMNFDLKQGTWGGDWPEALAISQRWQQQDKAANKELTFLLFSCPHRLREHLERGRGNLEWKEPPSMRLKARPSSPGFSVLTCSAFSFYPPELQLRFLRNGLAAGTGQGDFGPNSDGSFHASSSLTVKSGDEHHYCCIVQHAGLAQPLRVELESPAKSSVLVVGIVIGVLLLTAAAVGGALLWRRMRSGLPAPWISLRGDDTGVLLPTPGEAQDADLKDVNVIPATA
Chain of UniProt P55899 (P61769 21-119, chain 2 of 2, further chain): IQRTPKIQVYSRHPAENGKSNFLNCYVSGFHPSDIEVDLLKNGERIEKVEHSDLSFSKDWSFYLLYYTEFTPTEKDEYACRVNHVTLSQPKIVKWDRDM

Assay [2] addresses human Fc-gamma receptor I (human) (UniProt P12314). Nature of the assay: SPR; BIAcore chip with immobilised anti-His antibody capturing His-tagged human FcγRI; antibody diluted >5000-fold in assay buffer and injected at 0.125-4.0 μg/mL; 1:1 Langmuir binding model.
Chain of UniProt P12314 (P12314 16-374): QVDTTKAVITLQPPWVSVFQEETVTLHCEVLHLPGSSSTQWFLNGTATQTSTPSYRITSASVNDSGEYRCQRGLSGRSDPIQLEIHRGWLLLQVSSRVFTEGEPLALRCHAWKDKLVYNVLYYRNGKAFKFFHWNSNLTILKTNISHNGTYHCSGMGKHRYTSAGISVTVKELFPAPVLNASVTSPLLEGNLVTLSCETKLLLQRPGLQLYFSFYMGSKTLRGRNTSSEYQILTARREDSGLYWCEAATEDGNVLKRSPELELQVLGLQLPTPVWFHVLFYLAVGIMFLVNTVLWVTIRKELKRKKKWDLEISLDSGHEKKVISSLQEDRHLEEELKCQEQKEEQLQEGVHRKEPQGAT
Assay [3] has as its target human Fc-gamma receptor IIa (human) (UniProt P12318). Nature of the assay: SPR; BIAcore chip with immobilised anti-His antibody capturing His-tagged human FcγRIIa, IIb, IIIa(F), IIIa(V), IIIbNA1 or IIIbNA2; antibody exchanged into assay buffer and injected at 0.125-4.0 mg/mL; steady state affinity model.
Chain of UniProt P12318 (P12318 34-317): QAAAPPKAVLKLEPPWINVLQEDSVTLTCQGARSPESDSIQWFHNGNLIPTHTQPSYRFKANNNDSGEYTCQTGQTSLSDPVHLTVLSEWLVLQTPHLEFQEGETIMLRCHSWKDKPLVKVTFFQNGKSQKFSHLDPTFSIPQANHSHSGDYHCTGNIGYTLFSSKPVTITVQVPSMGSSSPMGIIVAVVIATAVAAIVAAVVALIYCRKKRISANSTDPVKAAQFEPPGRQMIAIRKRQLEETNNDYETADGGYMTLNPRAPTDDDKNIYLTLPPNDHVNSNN
Assay [4] has as its target human Fc-gamma receptor IIb (human) (UniProt P31994). The description is as above.
Chain of UniProt P31994 (P31994 43-310): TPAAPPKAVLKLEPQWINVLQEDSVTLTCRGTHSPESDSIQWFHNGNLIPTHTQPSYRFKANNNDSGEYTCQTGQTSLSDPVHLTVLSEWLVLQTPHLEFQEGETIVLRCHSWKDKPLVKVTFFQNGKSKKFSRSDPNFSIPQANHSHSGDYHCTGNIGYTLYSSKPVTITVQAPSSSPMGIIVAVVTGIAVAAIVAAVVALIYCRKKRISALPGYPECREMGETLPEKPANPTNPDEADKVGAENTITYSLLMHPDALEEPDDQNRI
The target of assay [5] is human Fc-gamma receptor IIIa(F) (human) (UniProt P08637). The assay is described as above.
Chain of UniProt P08637 (P08637 17-254): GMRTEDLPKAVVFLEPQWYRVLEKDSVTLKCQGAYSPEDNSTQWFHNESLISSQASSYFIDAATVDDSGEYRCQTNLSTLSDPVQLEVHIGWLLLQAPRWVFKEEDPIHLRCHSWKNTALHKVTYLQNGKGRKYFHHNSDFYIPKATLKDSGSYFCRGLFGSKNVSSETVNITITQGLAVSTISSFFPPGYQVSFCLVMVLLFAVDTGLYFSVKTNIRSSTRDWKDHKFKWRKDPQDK

Regarding FKB327 (antibody), the Kd is 0.0664 µM and 0.0759 µM in assay [1]; 0.000382 µM and 0.000436 µM in assay [2]; 7.65 µM and 8.47 µM in assay [3]; 13.8 µM and 15.7 µM in assay [4]; 1 µM in assay [5].
